Measurements published in paper PMC7969020.

The substances below were run on TDG (thymine DNA glycosylase), full length (Homo sapiens) (assay: EMSA). Conditions: EMSA: 5 nM 32P DNA or mononucleosome, TDG 0-1 uM, buffer NB (composition not in material) + 0.2 mM MgCl2, 5% glycerol, 37 C 20 min; 5% native PAGE at 4 C.

Substance | Kd [µM]
0-NCP-0 mononucleosome | 0.185
0-NCP-30 mononucleosome | 0.059
30-NCP-30 mononucleosome | 0.062
601 DNA (naked, 147 bp) | 0.038
